Experimental data: PMC10999833 (Molecular Biology and Evolution, 2024)
Values joined by “and” are separate entries in the source; they are usually repeats but may differ in a detail not shown here. Equal entries are not always repeated.

Target: the molecule itself
Assay: SEC-MALS

B1: ancestor MBP-His6-J^981–1132 (wild-type bacteriophage λ J, C-terminal 152 amino acids, MBP-tagged) (domain or fragment, UniProt P03749 981-1132, looked up)
chain: NCTINGTLRAEKIVGDIVKAASAAFPRQRESSVDWPSGTRTVTVTDDHPFDRQIVVLPLTFRGSKRTVSGRTTYSMCYLKVLMNGAVIYDGAANEAVQVFSRIVDMPAGRGNVILTFTLTSTRHSADIPPYTFASDVQVMVIKKQALGISVV
**Q.** B1 was tested. Which “stoichiometry N” value did it give?
**A.** 3 and 2
